Consider four molecules from patent US10760049B2, “Generation of neural stem cells from undifferentiated human embryonic stem cells” (ES Cell International PTE Ltd., priority 2002, dated 2020).

Test [1] deals with hES cell derived neural progenitors. Description: Directed differentiation of neural progenitors towards a midbrain fate; scoring of TH+ clumps and TH+ neurons. It is filed as cell-based, human. The note with it: for effect on the proportion of TH+ clumps: added at 10 ng/ml to IBMX, Forskolin, PMA, dopamine and AA. The text has this: Neurospheres that were generated from noggin treated ES cell colonies as described above (Example 1) were propagated 21-35 days in NPM supplemented with FGF-2 and EGF. At this point the spheres were chopped into small clumps (2000-3000 cells per clump). FGF-2 and EGF were removed from the medium and the progenitors were directed to take a midbrain fate by treatment with various factors for 6-8 days. During treatment with the various factors the clumps were either cultured in suspension or plated on poly-D-lysine and laminin. The factors included. FGF1, FGF8, FGF17 (R&D Systems) at concentrations of 100-200 ng/ml SHH (R&D Systems) at 0.5-1 μg/ml. Other signal transduction inducers: cAMP inducers: IBMX (Sigma, 0.25 mM), forskolin (Sigma 50 μM), PKC inducers PMA (Sigma 200 nM) and dopamine (Sigma 20 μM) were also used. The medium was also supplemented with the survival factors Ascorbic acid (AA) (Sigma) at concentration of 400-800 μM and NT4 (R&D Systems) at concentration of 20 ng/ml. The medium was changed every other day. To induce further differentiation into neurons, the spheres were again disaggregated into small clumps and plated on poly-D-lysine (30-70 kDa. 10 μg/ml, Sigma) and laminin (4 μg/ml, Sigma) and cultured in NPM in the absence of the factors and in the presence of AA with or without NT4 for 5-10 days. Differentiated cells were analysed by indirect immunofluorescence (as described in example 1) for the expression of β-tubulin type III (Sigma, 1:1000-3000) Tyrosine hydroxylase (TH) (Sigma anti mouse monoclonal, 1:250-500 and Pel-Freez anti rabbit polyclonal, 1:50-100) dopamine transporter (DAT;_Chemicon; rabbit polyclobal 1:50-100) and Nurr1 (Santa Cruz, Calif.; rabbit poly clonal 1:100-200). The proportion of clumps of cells that were comprised of a significant number of TH+ cells (>50 cells) was scored. Double immunostaining for TH and β-tubulin type III was used to analyse the percentage of cells within clumps expressing TH from the total number of neurons β-tubulin type III+cells). Multiple confocal microscopy images of consecutive planes through the clump were projected into one image for this analysis (FIG. 14) Ten-fifteen random fields were analysed.

Test [2] has as its system undifferentiated human ES cell clumps. As to the kind of experiment: hES cell clumps cultured in suspension in NPM+FGF2 with or without noggin; indirect immunofluorescence for neural and non-neural markers. The test is classed as cell-based. The conditions noted are these: for proportion of cells expressing endodermal and mesodermal markers: noggin 350 and 700 ng/ml versus no noggin, then a week of differentiation. The method, then:
In an alternative approach, undifferentiated human ES cell clumps of about 200 cells were transferred into NPM and cultured in suspension in the presence of noggin (350 and 700 ng/ml) for approximately 3 weeks. To further induce neural differentiation, proliferation and prevent the differentiation of neural progenitors the medium was also supplemented with human recombinant FGF-2 (20 ng/ml). LIF (10 ng/ml) was also included in the medium in early experiments. The media was replaced twice a week. Under these culture conditions the clumps of hES cells turned into round spheres within 7 days (FIG. 3 C,D).
To evaluate the effect of these culture conditions, we have evaluated the phenotype of cells within clumps following three weeks of culture. We have examined two concentrations of noggin (350 and 700 ng/ml) in comparison to culture in NPM supplemented with FGF2 in the absence of noggin. The clusters were disaggregated into single cells or small clumps that were plated, cultured for 4 hours on laminin, fixed and analysed by indirect immunofluorescence for the expression of the early neural markers nestin, A2B5 and N-CAM. Markers of endoderm (probably extraembryonic; low molecular weight (LMW) cytokeratin and laminin) and mesoderm (muscle specific actin and desmin) were examined after a week of differentiation. Immunofluorescence methods and source of antibodies are described below in section (C).
To analyse and differentiate between the effect of NPM supplemented with FGF2 and noggin on the differentiation of the hES cell clusters we have characterized and compared the differentiation of these clusters following culture in three different media (FIG. 5): (a) NPM supplemented with b-FGF and noggin (700 ng/ml), (b) the same medium without noggin and (c) knockout (KO) medium. After three weeks of culture a significant difference in the morphology of the clusters was observed. Clusters that were cultured in KO medium had the typical morphology of embryoid bodies (EBs, FIG. 5c). Clusters that were cultured in NPM and FGF2 were characterized by cystic structures and areas of dense cells resembling neural spheres (FIG. 5b). Clusters that were cultured in the presence of noggin had the typical morphology of neural spheres without cystic structures (FIG. 5a).
Clusters that were cultured in NPM with (FIG. 5a) or without noggin (FIG. 5b) were further cultured for an additional 3 weeks in NPM supplemented with FGF2 in the absence of noggin (FIG. 5).
To characterize and compare the phenotype of cells within the clusters following differentiation and propagation at the various culture conditions (FIG. 5), the clusters were disaggregated after 3 weeks in culture into single cells or small clumps that were plated, cultured for 4 hours on laminin, fixed and analysed for the expression of the early neural markers nestin, A2B5, N-CAM, PSA-NCAM and β-tubulin III (FIG. 6). The same analysis was done after additional 3 weeks of culture in NPM supplemented with FGF2 (FIG. 7).
The percentage of cells within the clumps that expressed non-neural markers at 3 weeks (FIG. 8) and 6 weeks (FIG. 9) of the same floating cultures as above was analysed. Indirect immuno fluorescence analysis of the expression of non-neural markers was performed following disaggregation of the clumps and one week of differentiation on laminin.
(§1) In general, for the immunophenotyping of disaggregated neural progenitor cells and differentiated neurons, fixation with 4% paraformaldehyde for 20 minutes at room temperature was used unless otherwise specified. It was followed by blocking with 5% heat inactivated goat serum (Dako) and permeabilization with 0.2% Triton X (Sigma) in PBS with 0.1% BSA for 30 minutes. Samples were incubated with the primary antibodies at room temperature for one hour. […]

The test system is the same in test [3]. As to the kind of experiment: RT-PCR of non-neural marker transcripts in noggin treated hES cell clumps. The test is classed as cell-based. On the procedure: At the RNA level, RT-PCR analysis confirmed that in the noggin treated clumps the expression of the endodermal (probably extraembryonic) marker alpha-fetal protein was reduced/undetectable at 3 weeks. This marker was also undetectable at 6 weeks.
RT-PCR was performed as previously described (Reubinoff et al., 2001). Primer sequences (forward and reverse) and the length of amplified products were as previously described (Reubinoff et al 2001) for alpha-feto-protein and HNF3a and as follows for keratin 8: […]

In test [4] the test system is human ES cells (HES-1 cell line). Description: Noggin-directed differentiation of hES cell colonies on feeders; immunophenotype of derived spheres and rosette areas. The test is classed as cell-based. The method, then:
To derive enriched preparations of neural progenitors, differentiation of human ES cells was directed into neural fate by transfer of undifferentiated hES cell clumps onto fresh feeders and culture in a modified hES cell medium with reduced serum concentration and in the presence of the BMP antagonist noggin. Specifically, human ES cells (HES-1 cell line, Reubinoff et al 2000, PCT/AU99/00990) with a stable normal (46XX) karyotype were cultured on mitomycin C mitotically inactivated mouse embryonic fibroblast feeder layer in gelatine coated tissue culture dishes as previously described (Reubinoff et al., 2000 PCT/AU99/00990 and PCT/AU01/00278). To induce differentiation, at the usual passage, clumps of undifferentiated ES cells were plated on fresh feeders and cultured in the usual hES medium supplemented with 10% serum (instead of 20%) and 500 ng/ml of noggin (R&D systems). Noggin (500 ng/ml) was further added to the medium every other day throughout a 6-8 day culture period (3-4 administrations). After 6-8 days, noggin was omitted and the cells were further cultured in the modified medium with 10% serum for additional 4-6 days. At this time about 12-14 days, about 70% of the colonies differentiated mostly into areas that were comprised of tightly packed small cells with a uniform grey opaque appearance under dark field stereo microscope (FIG. 1a, PCT/AU01/00278, PCT/AU01/00735). Other colonies differentiated into areas with structures that could resemble primitive neural rosettes (FIG. 1b).
Clumps of about 150 cells were mechanically isolated by using the razor-sharp edge of a micro glass pipette or a razor blade from the grey opaque areas and replated in serum-free medium supplemented with human recombinant FGF-2 and EGF. Specifically, the clusters of cells were transferred to plastic tissue culture dishes containing neural progenitors growth medium (NPM) that consisted of DMEM/F12 (1:1), B27 supplementation (1:50), glutamine 2 mM, penicillin 50 u/ml and streptomycin 50 μg/ml (Gibco), and supplemented with 20 ng/ml human recombinant epidermal growth factor (EGF), and 20 ng/ml fibroblast growth factor 2 (FGF2) (R & D Systems, Inc., Minneapolis, Minn.). Under these culture conditions the clumps formed free floating spherical structures within 24 hours and sequential propagation and expansion of the sphere cultures was possible as previously described (Reubinoff at al., 2001, PCT/AU01/00278) for prolonged periods (6 months).
During the initial weeks in culture, the spheres gradually acquired a uniform morphology (FIG. 3 A,B). A detailed analysis of marker expression by the cell within the spheres was conducted at 3-4, 8 and 12 weeks after derivation. The spheres were disaggregated into single cells that were plated, fixed and analysed by fluorescent immunohistochemistry for the expression of the early neural markers N-CAM, A2B5, PSA-NCAM and nestin. A high proportion of the cells expressed these markers (N-CAM 83±4% A2B5 84±4%, nestin 69±6% PSA-NCAM 74±2%) and the level of expression was stable during the 12 weeks period.
The phenotype of cells within the areas with structures that could resemble primitive neural rosettes (FIG. 1b) was also analyzed. These areas were mechanically dissected, and disaggregated. The cells were plated on laminin and cultured in NPM for two days.
as §1

Where [5] appears, read: three weeks in NPM+FGF2+noggin (700 ng/ml).
[6] abbreviates: spheres derived from noggin treated colonies, 3-4, 8 and 12 weeks after derivation.

Take “FGF-1: fibroblast growth factor FGF1 (R&D Systems)”: the “effect on the proportion of TH+ clumps” value in test [1] was “did not increase”.
On to `O=C1O[C@H]([C@@H](O)CO)C(O)=C1O` [ascorbic acid, reference compound], for which, in test [1] (confocal microscopy, cellular level), the “percentage of TH+ neurons from the total number of neurons (β-tubulin type III+ cells)” value came out at 45%. Moreover, the “proportion of TH+ clumps (clumps with >50 TH+ cells)” value in test [1] (factors for 6-8 days after removal of FGF-2 and EGF, then differentiation on poly-D-lysine and laminin with AA) was determined as 35%.

B1: FGF-8: fibroblast growth factor FGF8 (R&D Systems) (protein, UniProt P55075 23-233, looked up)
Fibroblast growth factor 8: QEGPGRGPALGRELASLFRAGREPQGVSQQHVREQSLVTDQLSRRLIRTYQLYSRTSGKHVQVLANKRINAMAEDGDPFAKLIVETDTFGSRVRVRGAETGLYICMNKKGKLIAKSNGKGKDCVFTEIVLENNYTALQNAKYEGWYMAFTRKGRPRKGSKTRQHQREVHFMKRLPRGHHTTEQSLRFEFLNYPPFTRSLRGSQRTWAPEPR
For B1, the “effect on the proportion of TH+ clumps” value in test [1] is recorded as “did not increase”.

B2: noggin: BMP antagonist noggin (R&D systems) (protein, UniProt Q13253 28-232, looked up)
Noggin: QHYLHIRPAPSDNLPLVDLIEHPDPIFDPKEKDLNETLLRSLLGGHYDPGFMATSPPEDRPGGGGGAAGGAEDLAELDQLLRQRPSGAMPSEIKGLEFSEGLAQGKKQRLSKKLRRKLQMWLWSQTFCPVLYAWNDLGSRFWPRYVKVGSCFSKRSCSVPEGMVCKPSKSVHLTVLRWRCQRRGGQRCGWIPIQYPIISECKCSC
For the molecule B2, the “cells expressing non-neural markers” value in test [2] (after additional 3 weeks of culture in NPM+FGF2 (6 weeks)) is “undetectable or rare”. Further, in test [2] (noggin 700 ng/ml, three weeks), the “percentage of cells expressing nestin and A2B5 versus NPM+FGF2 without noggin” value was “slightly higher”. In test [2] (three weeks), the “proportion of cells expressing endodermal and mesodermal markers” value is on record as “significantly reduced after noggin treatment in a dose dependent manner”. In test [2] (three weeks, listed as Noggin), the “proportion of cells expressing endodermal and mesodermal markers” value is on record as “reduced in a dose dependent manner”. Also, in test [2] (noggin treated cultures after 3 weeks, one week of differentiation on laminin), the “percentage of cells expressing non-neural markers” value is “significant reduction”. In addition, in test [2] (setting [5]), the “percentage of cells expressing A2B5” value worked out at 95.6% and the “percentage of cells expressing NCAM” value is given as 73%. In test [2] (three weeks in NPM+FGF2+noggin, then additional 3 weeks in NPM+FGF2), the “percentage of cells expressing NCAM” value is reported as 93%. For the same molecule, in test [3] (3 weeks), the “expression of endodermal marker alpha-fetal protein (RT-PCR)” value is reported as “reduced/undetectable” and the “expression of transcripts of epidermal marker keratin-14 (RT-PCR)” value is given as “significantly reduced”. Further, in test [3] (6 weeks), the “expression of endodermal marker HNF3α (RT-PCR)” value is “reduced/undetectable”, the “expression of endodermal marker alpha-fetal protein (RT-PCR)” value is given as “undetectable” and the “expression of transcripts of epidermal marker keratin-14 (RT-PCR)” value is reported as “undetectable”. Also, in test [4] (areas resembling primitive neural rosettes in noggin treated colonies, two days on laminin in NPM), the “cells expressing N-CAM and nestin” value is 95-100%. Besides, the “colonies differentiated mostly into areas of tightly packed small cells” value in test [4] (noggin 500 ng/ml every other day for 6-8 days, 10% serum, on feeders, scored at about 12-14 days) is “about 70%”. In addition, in test [4] (setting [6]), the “cells expressing A2B5” value turned out to be 84±4%, the “cells expressing N-CAM” value came out at 83±4%, the “cells expressing PSA-NCAM” value came out at 74±2% and the cells expressing nestin came out at 69±6%.
